For the assay, the target named is HLA-A*02:01 (Homo sapiens, UniProt P04439, D140Y/D185E/D98H/E176V/E277Q/G131W/G231S/I119V/I121R/I166T/I218V/L300P/L318F/N151K/N90K/P208A/P217A/Q86G/Q94H/R138H/R169H/T345S). Description: MHC binding assay (UV-ligand exchange, ELISA of exchange yield). To be noted: binding to HLA-A*02:01, UV-ligand exchange. The procedure, abridged:
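ELISA of β2m retained on streptavidin-captured, 100-fold diluted complexes (HRP anti-β2m, TMB, 450 nm) gives the yield. Complexes come from UV-triggered exchange of a photocleavable placeholder peptide for the candidate, which must bind to stop complex dissociation.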
(In general: ELISA stands for enzyme-linked immunosorbent assay.)
For the substance “363 (KVLDVSDLESV; listed as Homo sapiens) [compound 363]”, the “Peptide exchange (MHC class I binding score, peptide exchange yield)” value (“Peptide exchange” below) is given as ““++” (≥20% = ++)”.

Regarding “364 (LLQNEQFEL; listed as Homo sapiens) [compound 364]”, the “Peptide exchange” value is given as ““+++” (≥50 = +++)”.

As for “365 (YVIDQGETDVYV; listed as Homo sapiens) [compound 365]”, the “Peptide exchange” value is ““+++” (≥50 = +++)”.

As for “366 (RLLDMGETDLML; listed as Homo sapiens) [compound 366]”, the “Peptide exchange” value is ““+++” (≥50 = +++)”.

As to “367 (SLQNHNHQL; listed as Homo sapiens) [compound 367]”, the “Peptide exchange” value is reported as ““+++” (≥50 = +++)”.

Turning to “369 (GLFPEHLIDV; listed as Homo sapiens) [compound 369]”, the “Peptide exchange” value was ““+++” (≥50 = +++)”.

Consider “370 (SLLQDLVSV; listed as Homo sapiens) [compound 370]”, for which the “Peptide exchange” value is reported as ““+++” (≥50 = +++)”.

For “371 (FLQAHLHTA; listed as Homo sapiens) [compound 371]”, the “Peptide exchange” value was ““++++” (≥75% = ++++)”.

Turning to “372 (TMLLNIPLV; listed as Homo sapiens) [compound 372]”, the “Peptide exchange” value is ““++” (≥20% = ++)”.

Take “373 (SLLEDKGLAEV; listed as Homo sapiens) [compound 373]”: the “Peptide exchange” value was ““++” (≥20% = ++)”.

On to “374 (FLLQQHLISA; listed as Homo sapiens) [compound 374]”, for which the “Peptide exchange” value is on record as ““++” (≥20% = ++)”.

Consider “375 (SLTETIEGV; listed as Homo sapiens) [compound 375]”, for which the “Peptide exchange” value was ““++” (≥20% = ++)”.

Take “376 (AMFESSQNVLL; listed as Homo sapiens) [compound 376]”: the “Peptide exchange” value is listed as ““++” (≥20% = ++)”.

As for “377 (FLLDSSASV; listed as Homo sapiens) [compound 377]”, the “Peptide exchange” value was ““++” (≥20% = ++)”.

For “378 (ALGYFVPYV; listed as Homo sapiens) [compound 378]”, the “Peptide exchange” value is ““+++” (≥50 = +++)”.

Take “379 (IMEGTLTRV; listed as Homo sapiens) [compound 379]”: the “Peptide exchange” value is given as ““++” (≥20% = ++)”.

For “380 (TLIEDEIATI; listed as Homo sapiens) [compound 380]”, the “Peptide exchange” value is listed as ““++” (≥20% = ++)”.

For “381 (FIDEAYVEV; listed as Homo sapiens) [compound 381]”, the “Peptide exchange” value was ““++” (≥20% = ++)”.

“382 (ALQNYIKEA; listed as Homo sapiens) [compound 382]”: the “Peptide exchange” value was ““++” (≥20% = ++)”.

Consider “383 (ALLELENSVTL; listed as Homo sapiens) [compound 383]”, for which the “Peptide exchange” value is given as ““+++” (≥50 = +++)”.

“384 (ILFANPNIFV; listed as Homo sapiens) [compound 384]”: the “Peptide exchange” value is ““+++” (≥50 = +++)”.

With “385 (SLLEQGLVEA; listed as Homo sapiens) [compound 385]”, the “Peptide exchange” value is listed as ““++” (≥20% = ++)”.

For “386 (ILFRYPLTI; listed as Homo sapiens) [compound 386]”, the “Peptide exchange” value is ““+++” (≥50 = +++)”.

Regarding “387 (ALFQATAEV; listed as Homo sapiens) [compound 387]”, the “Peptide exchange” value was ““++++” (≥75% = ++++)”.

Take “388 (SLTIDGIRYV; listed as Homo sapiens) [compound 388]”: the “Peptide exchange” value is listed as ““+++” (≥50 = +++)”.

“389 (LLADVTHLL; listed as Homo sapiens) [compound 389]”: the “Peptide exchange” value is reported as ““++” (≥20% = ++)”.

“390 (ALFMKQIYL; listed as Homo sapiens) [compound 390]”: the “Peptide exchange” value was ““+++” (≥50 = +++)”.

Take “391 (YVYPQRLNFV; listed as Homo sapiens) [compound 391]”: the “Peptide exchange” value was ““+++” (≥50 = +++)”.

For “392 (ALLHPQGFEV; listed as Homo sapiens) [compound 392]”, the “Peptide exchange” value is reported as ““++” (≥20% = ++)”.

For “393 (GLLDTQTSQVLTA; listed as Homo sapiens) [compound 393]”, the “Peptide exchange” value is given as ““++” (≥20% = ++)”.

Turning to “394 (LLAVIGGLVYL; listed as Homo sapiens) [compound 394]”, the “Peptide exchange” value is listed as ““+++” (≥50 = +++)”.

As to “395 (ALALGGIAVV; listed as Homo sapiens) [compound 395]”, the “Peptide exchange” value is ““++++” (≥75% = ++++)”.

“396 (ALLPDLPAL; listed as Homo sapiens) [compound 396]”: the “Peptide exchange” value is ““+++” (≥50 = +++)”.

Take “397 (YLFGERLLEC; listed as Homo sapiens) [compound 397]”: the “Peptide exchange” value is reported as ““+++” (≥50 = +++)”.

As to “398 (KLLEEDGTIITL; listed as Homo sapiens) [compound 398]”, the “Peptide exchange” value is on record as ““++” (≥20% = ++)”.

As to “399 (YLFEPLYHV; listed as Homo sapiens) [compound 399]”, the “Peptide exchange” value is on record as ““+++” (≥50 = +++)”.

With “400 (SLLTEQDLWTV; listed as Homo sapiens) [compound 400]”, the “Peptide exchange” value is given as ““++” (≥20% = ++)”.

As to “401 (ILLDDTGLAYI; listed as Homo sapiens) [compound 401]”, the “Peptide exchange” value is reported as ““+++” (≥50 = +++)”.

Regarding “402 (VLFSGALLGL; listed as Homo sapiens) [compound 402]”, the “Peptide exchange” value is on record as ““++” (≥20% = ++)”.

Regarding “403 (KLYDRILRV; listed as Homo sapiens) [compound 403]”, the “Peptide exchange” value is listed as ““++” (≥20% = ++)”.

As to “405 (ALYDVFLEV; listed as Homo sapiens) [compound 405]”, the “Peptide exchange” value was ““++” (≥20% = ++)”.

Regarding “407 (YLMDLINFL; listed as Homo sapiens) [compound 407]”, the “Peptide exchange” value is on record as ““+++” (≥50 = +++)”.

“408 (VLDDSIYLV; listed as Homo sapiens) [compound 408]”: the “Peptide exchange” value was ““++” (≥20% = ++)”.

Turning to “409 (LLDAMNYHL; listed as Homo sapiens) [compound 409]”, the “Peptide exchange” value is listed as ““++” (≥20% = ++)”.

Consider “412 (YLDDLNEGVYI; listed as Homo sapiens) [compound 412]”, for which the “Peptide exchange” value is reported as ““++” (≥20% = ++)”.

As to “426 (RLADKSVLV; listed as Homo sapiens) [compound 426]”, the “Peptide exchange” value is given as ““+++” (≥50 = +++)”.
